Results as given in patent US6974863 (INDIANA UNIVERSITY RESEARCH AND TECHNOLOGY, dated 2005).
One block for each molecule: values may come before it.

Experiments:
[1] = molecular target: 4-1BB-AP binding sites (putative cell-surface 4-1BB ligand) on mature B cells and macrophages; assay: competition on A20 cells: 20 µg/ml rs4-1BB (50 fold excess) before 4-1BB-AP at 375 ng/ml as competitor; AP activity
[2] = molecular target: T1, human vitronectin (human, UniProt P04004 20-478); assay: ELISA, human vitronectin immobilized on microtiter plates, AP activity (data not shown)
T1 construct: Bought protein
Description: Chalupny and colleagues (132) have proposed that 4-1BB Rg, a fusion protein consisting of the extracellular domain of 4-1BB and the Fc region of human IgG, bound to the extracellular matrix (ECM). The highest levels of 4-1BB Rg binding was to human vitronectin. In data not shown, an ELISA was performed using 4-1BB-AP and human vitronectin (Yelios Pharmaceuticals/GIBCO-BRL, Grand Island, N.Y.) immobilized at 0.007 μg–10 μg per well on microtiter plates. No binding of 4-1BB-AP based on AP activity was observed. To rule out the possibility that 4-1BB-AP was binding to proteins extrinsically attached to the cell surface (possible extracellular matrix components), B-cell lymphomas were washed in acid conditions prior to the binding assay (115). 4-1BB-AP still bound specifically to mature B-cell lymphomas (data not shown). We are currently determining whether a 4-1BB-ligand specifically expressed on B cells and macrophages exists, and whether 4-1BB-AP may bind to the ECM under particular binding conditions. It is possible that the ECM could facilitate the binding of 4-1BB to a specific cell-surface ligand.

[3] = molecular target: T2, mutated p56lck, construct C1 (cys 20-ser) (murine, UniProt P06240 2-509); assay: coimmunoprecipitation with 53A2, in vitro kinase labeling, HeLa cells
T2 construct: Expressed in HeLa cells with the vaccinia T7 system; also called mutant p56^lck C1
Text: (§1) High levels of coexpression have been achieved previously with this system to facilitate interactions between CD4 and p56^lck. To ensure consistent expression of 4-1BB, the transfected HeLa cells were briefly labeled with [^35S] cysteine before harvest. 4-1BB expression was monitored by immunoprecipitation of ^35S-labeled 4-1BB with 53A2.
(§2) FIGS. 32a–c show an analysis of the association of 4-1BB and p56^lck HeLa cells. […] Lysates were immunoprecipitated with antibodies to p56^lck and 4-1BB and labeled with [γ-^32P] ATP by the in vitro kinase reaction. The positions of p56^lck and 4-1BB are indicated to the right. Total HeLa celll lysates were immunoblotted with antibody top56^lck assay thep56^lck expression. FIGS. 32b and 32c show an immune complex kinase assay. Aliquots of the saline lysates were immunoprecipitated with antip56^lck serum (FIG. 32b) or 53A2 (FIG. 32c) followed by the in vitro kinase reaction with [γ-^32P] ATP as described in the legend to FIG. 30. […] HeLa celis were grown to 80% confluency on 100-mm petri dishes in DMEM containing 10% FBS and antibiotics. Cells were infected with 1×10^8 pfu of vaccinia virus expressing T7 RNA polymerase (136) 30 min before transfection. DNA was transfected in liposomes (Lipofectin, GIBCO, BRL). 15 μg DNA and 50 μl liposome diluted into 5 ml serum-free DMEM were incubated in 12×75 mm polystyrene tubes at room temperature for 15 min. […]

[4] = molecular target: T3, mutated p56lck, construct C2 (cys 23-ser) (murine, UniProt P06240 2-509); assay: as above
T3 construct: Expressed in HeLa cells with the vaccinia T7 system; also called mutant p56^lck C2
Text: as §1, §2

T2 sequence (P06240 other isoform, or with tags, fused parts or gaps limits assumed, change not shown): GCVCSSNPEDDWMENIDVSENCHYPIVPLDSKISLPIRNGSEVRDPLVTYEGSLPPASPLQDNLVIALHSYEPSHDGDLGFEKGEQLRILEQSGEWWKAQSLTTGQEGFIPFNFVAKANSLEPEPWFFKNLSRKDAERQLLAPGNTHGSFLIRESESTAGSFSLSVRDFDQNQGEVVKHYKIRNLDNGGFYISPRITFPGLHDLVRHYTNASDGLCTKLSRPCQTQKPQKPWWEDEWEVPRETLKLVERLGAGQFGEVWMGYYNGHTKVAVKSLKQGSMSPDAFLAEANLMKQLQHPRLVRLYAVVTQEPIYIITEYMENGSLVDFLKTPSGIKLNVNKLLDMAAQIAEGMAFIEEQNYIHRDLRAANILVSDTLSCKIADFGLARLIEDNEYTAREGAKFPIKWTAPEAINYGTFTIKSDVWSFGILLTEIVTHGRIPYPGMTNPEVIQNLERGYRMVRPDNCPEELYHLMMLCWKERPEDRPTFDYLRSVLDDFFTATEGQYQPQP
T3 sequence (P06240 other isoform, or with tags, fused parts or gaps limits assumed, change not shown): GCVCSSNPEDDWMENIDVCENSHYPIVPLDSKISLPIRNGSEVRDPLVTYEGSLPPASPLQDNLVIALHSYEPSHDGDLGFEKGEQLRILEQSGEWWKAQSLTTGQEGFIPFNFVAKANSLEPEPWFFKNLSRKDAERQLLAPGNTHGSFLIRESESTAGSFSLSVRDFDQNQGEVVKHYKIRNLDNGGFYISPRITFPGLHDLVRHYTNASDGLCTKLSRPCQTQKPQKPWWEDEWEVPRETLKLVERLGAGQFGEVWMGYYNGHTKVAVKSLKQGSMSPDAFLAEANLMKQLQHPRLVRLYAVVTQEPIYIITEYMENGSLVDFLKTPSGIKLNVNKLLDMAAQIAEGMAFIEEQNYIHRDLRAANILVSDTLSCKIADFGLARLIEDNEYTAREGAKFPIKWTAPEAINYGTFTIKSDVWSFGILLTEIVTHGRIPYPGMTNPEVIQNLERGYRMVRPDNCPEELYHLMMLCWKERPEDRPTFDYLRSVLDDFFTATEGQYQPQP
T1 sequence (P04004 20-478 limits assumed): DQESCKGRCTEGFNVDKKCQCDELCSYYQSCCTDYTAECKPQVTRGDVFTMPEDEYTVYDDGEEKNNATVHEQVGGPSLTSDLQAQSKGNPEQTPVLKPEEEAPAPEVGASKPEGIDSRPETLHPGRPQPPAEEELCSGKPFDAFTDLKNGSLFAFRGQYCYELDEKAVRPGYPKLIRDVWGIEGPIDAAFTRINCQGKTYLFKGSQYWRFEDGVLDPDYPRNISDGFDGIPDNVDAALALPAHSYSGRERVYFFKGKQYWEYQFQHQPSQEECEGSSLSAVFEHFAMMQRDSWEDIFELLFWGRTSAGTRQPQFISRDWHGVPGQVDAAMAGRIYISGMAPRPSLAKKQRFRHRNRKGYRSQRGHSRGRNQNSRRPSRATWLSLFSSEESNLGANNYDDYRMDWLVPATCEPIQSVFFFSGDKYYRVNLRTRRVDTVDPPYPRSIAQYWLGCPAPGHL

- percent of 4-1BB-AP binding blocked [1]: 70%
Molecule: recombinant soluble 4-1BB protein (extracellular domain of mouse 4-1BB) (from UniProt P20334 24-187) (receptor)

B1: 4-1BB-AP fusion protein (extracellular domain of 4-1BB fused to human placental alkaline phosphatase) (other)
chain: VQNSCDNCQPGTFCRKYNPVCKSCPPSTFSSIGGQPNCNICRVCAGYFRFKKFCSSTHNAECECIEGFHCLGPQCTRCEKDCRPGQELTKQGCKTCSLGTFNDQNGTGVCRPWTNCSLDGRSVLKTGTTEKDVVCGPPVVSFSPSTTISVTPEGGPGGHSLQVL
notes: Signal peptide and entire extracellular domain of 4-1BB up to the first hydrophobic residue of the transmembrane region, joined in frame upstream of AP; secreted by NIH-3T3 transfectants; also called 4-1BB-Alkaline Phosphatase; 85 kDa fusion protein; not shown: human placental alkaline phosphatase as coded in the APtag-1 vector
- binding result [2]: no binding (tested: 0.007 µg-10 µg per well)

- binding result [3]: no binding
- binding result [4]: no binding
B2: mouse receptor protein 4-1BB (full length) (receptor)
chain: VQNSCDNCQPGTFCRKYNPVCKSCPPSTFSSIGGQPNCNICRVCAGYFRFKKFCSSTHNAECECIEGFHCLGPQCTRCEKDCRPGQELTKQGCKTCSLGTFNDQNGTGVCRPWTNCSLDGRSVLKTGTTEKDVVCGPPVVSFSPSTTISVTPEGGPGGHSLQVLTLFLALTSALLLALIFITLLFSVLKWIRKKFPHIFKQPFKKTTGAAQEEDACSCRCPQEEEGGGGGYEL
notes: Native on T cells (CTLL-R8, CTLL-2, F1, splenic T cells, thymocytes) or recombinant full length in Sf-21 and HeLa cells; also tested in lysates and blots; Seen as 30 kDa monomer, 55 kDa dimer and possibly 110 kDa tetramer; homodimer not proven; also called 4-1BBP; 4-1BBL (full length cDNA construct)
